Source: patent US20170189504A1

Biological target: HLA-A*24 (human)
Experiment: UV-ligand exchange, anti-b2m ELISA

Binder	peptide exchange yield [%]
QYLGQIQHI [SEQ ID NO: 268 peptide …]	50 to 75
IYATEAHVF [SEQ ID NO: 201 peptide …]	50 to 75
TYELRYFQI [SEQ ID NO: 204 peptide …]	> 75
YYGPSLFLL [SEQ ID NO: 200 peptide …]	50 to 75
TYKDEGNDYF [SEQ ID NO: 209 peptide …]	50 to 75
RYAEEVGIF [SEQ ID NO: 199 peptide …]	50 to 75
YFIDSTNLKTHF [SEQ ID NO: 269 peptide …]	50 to 75
YYKSTSSAF [SEQ ID NO: 218 peptide …]	50 to 75
VYWDSAGAAHF [SEQ ID NO: 202 peptide …]	> 75
AYVVFVSTL [SEQ ID NO: 207 peptide …]	20 to 49
TFSVSSHLF [SEQ ID NO: 222 peptide …]	50 to 75

More lines, now with the values ahead:

peptide exchange yield [%]	Binder
> 75	VYQGHTALL [SEQ ID NO: 277 peptide …]
20 to 49	PYRLIFEKF [SEQ ID NO: 281 peptide …]
50 to 75	LYITEPKTI [SEQ ID NO: 287 peptide …]
50 to 75	NYYEVHKELF [SEQ ID NO: 270 peptide …]
50 to 75	HYPPVQVLF [SEQ ID NO: 285 peptide …]
